According to publication PMC3485628:
Like-named read-outs stand apart in the source and are kept apart here.

What was measured:
[1] = biological target: a commercial source of HSPG; assay: ELISA; capture antibody CSI 001-71 (anti-Pln.D1) coated, then rhPln.247 (1 ug/ml) or HSPG, then dilutions of rhBMP-2; retained BMP detected with anti-BMP antibodies; background subtracted; apparent Kd
[2] = biological target: a commercial source of HSPG; assay: as above; remark: listed apart in the source
[3] = biological target: recombinant human perlecan domain 1 proteoglycan rhPln.247 (human) (UniProt P98160); assay: as above
Sequence of recombinant human perlecan domain 1 proteoglycan rhPln.247 (human) (P98160 22-247): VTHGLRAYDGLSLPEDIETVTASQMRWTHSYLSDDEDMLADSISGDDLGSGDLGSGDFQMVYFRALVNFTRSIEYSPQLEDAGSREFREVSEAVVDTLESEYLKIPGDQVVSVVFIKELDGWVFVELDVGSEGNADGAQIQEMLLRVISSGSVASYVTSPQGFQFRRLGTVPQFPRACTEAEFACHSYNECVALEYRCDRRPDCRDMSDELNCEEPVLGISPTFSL

[4] = biological target: recombinant human perlecan domain 1 proteoglycan rhPln.247 (human) (UniProt P98160); assay: ELISA; rhPln.247 coated directly on polystyrene microtiter wells overnight at 4°C in PBS/N3 at about 1-2 ug/ml; rhBMP-2 or rhBMP-7 serially diluted; retained BMP detected with biotinylated anti-BMP antibodies; background without rhPln.247 subtracted; apparent Kd
[5] = biological target: recombinant human perlecan domain 1 proteoglycan rhPln.247 (human) (UniProt P98160); assay: as above; remark: listed apart in the source

Sequence of recombinant human bone morphogenetic protein-2 (P12643 283-396): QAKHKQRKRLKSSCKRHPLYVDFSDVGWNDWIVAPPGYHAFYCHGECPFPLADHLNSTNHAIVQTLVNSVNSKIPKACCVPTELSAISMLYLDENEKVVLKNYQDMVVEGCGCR

## recombinant human bone morphogenetic protein-2 (from UniProt P12643 283-396) (ligand)
[1]
  Kd: 150 nM
[2]
  Kd: 0.15 nM
[3]
  Kd: 0.6 nM
[4]
  Kd: 0.573 nM
[5]
  Kd: 0.4 nM
